Experimental data taken from patent publication US20200199204A1.

Assays:
Test in all cases: cell-based or functional assay
[1] = molecular target: HIV-1 Env of 0260.v5.c36 (HIV-1)
[2] = molecular target: HIV-1 Env of 191821.E6.1 (HIV-1)
[3] = molecular target: HIV-1 Env of 3016.V5.c36 (HIV-1)
[4] = molecular target: HIV-1 Env of 6405.v4.c34 (HIV-1)
[5] = molecular target: HIV-1 Env of 6535.3 (HIV-1)
[6] = molecular target: HIV-1 Env of 96ZM651.02 (HIV-1)
[7] = molecular target: HIV-1 Env of AC10.29 (HIV-1)
[8] = molecular target: HIV-1 Env of BG505.w6m (HIV-1)
[9] = molecular target: HIV-1 Env of C1080.c3 (HIV-1)
[10] = molecular target: HIV-1 Env of CAAN.A2 (HIV-1)
[11] = molecular target: HIV-1 Env of CAP210.E8 (HIV-1)
[12] = molecular target: HIV-1 Env of CAP244.D3 (HIV-1)
[13] = molecular target: HIV-1 Env of CAP256.PI (HIV-1)
[14] = molecular target: HIV-1 Env of CAP256.SU (HIV-1)
[15] = molecular target: HIV-1 Env of CAP45.G3 (HIV-1)
[16] = molecular target: HIV-1 Env of CM244.ec1 (HIV-1)
[17] = molecular target: HIV-1 Env of CNE3 (HIV-1)
[18] = molecular target: HIV-1 Env of DU156.12 (HIV-1)
[19] = molecular target: HIV-1 Env of DU172.17 (HIV-1)
[20] = molecular target: HIV-1 Env of DU422.01 (HIV-1)
[21] = molecular target: HIV-1 Env of KER2008.12 (HIV-1)
[22] = molecular target: HIV-1 Env of KER2018.11 (HIV-1)
[23] = molecular target: HIV-1 Env of MB201 (HIV-1)
[24] = molecular target: HIV-1 Env of MB539.2B7 (HIV-1)
[25] = molecular target: HIV-1 Env of PVO.04 (HIV-1)
[26] = molecular target: HIV-1 Env of Q168.a2 (HIV-1)
[27] = molecular target: HIV-1 Env of Q23.17 (HIV-1)
[28] = molecular target: HIV-1 Env of Q259.d2.17 (HIV-1)
[29] = molecular target: HIV-1 Env of Q461.e2 (HIV-1)
[30] = molecular target: HIV-1 Env of Q769.d22 (HIV-1)
[31] = molecular target: HIV-1 Env of Q842.d12 (HIV-1)
[32] = molecular target: HIV-1 Env of QH0692.42 (HIV-1)
[33] = molecular target: HIV-1 Env of REJO.67 (HIV-1)
[34] = molecular target: HIV-1 Env of RHPA.7 (HIV-1)
[35] = molecular target: HIV-1 Env of RW020.2 (HIV-1)
[36] = molecular target: HIV-1 Env of SC422.8 (HIV-1)
[37] = molecular target: HIV-1 Env of TH976.17 (HIV-1)
[38] = molecular target: HIV-1 Env of THRO.18 (HIV-1)
[39] = molecular target: HIV-1 Env of TRJO.58 (HIV-1)
[40] = molecular target: HIV-1 Env of TRO.11 (HIV-1)
[41] = molecular target: HIV-1 Env of UG037.8 (HIV-1)
[42] = molecular target: HIV-1 Env of WITO.33 (HIV-1)
[43] = molecular target: HIV-1 Env of ZM109.4 (HIV-1)
[44] = molecular target: HIV-1 Env of ZM135.10a (HIV-1)
[45] = molecular target: HIV-1 Env of ZM197.7 (HIV-1)
[46] = molecular target: HIV-1 Env of ZM214.15 (HIV-1)
[47] = molecular target: HIV-1 Env of ZM233.6 (HIV-1)
[48] = molecular target: HIV-1 Env of ZM249.1 (HIV-1)
[49] = molecular target: HIV-1 Env of ZM53.12 (HIV-1)

CAP256-VRC26.15 (antibody)
IC50 [1]: > 50 µg/mL | IC50 [2]: > 50 µg/mL | IC50 [3]: 0.16 µg/mL | IC50 [4]: > 50 µg/mL | IC50 [5]: > 50 µg/mL | IC50 [6]: > 50 µg/mL | IC50 [7]: > 50 µg/mL | IC50 [8]: 11.7 µg/mL | IC50 [9]: > 50 µg/mL | IC50 [10]: > 50 µg/mL | IC50 [11]: 0.019 µg/mL | IC50 [12]: > 50 µg/mL | IC50 [13]: > 50 µg/mL | IC50 [14]: 0.008 µg/mL | IC50 [15]: > 50 µg/mL | IC50 [16]: 0.112 µg/mL | IC50 [17]: > 50 µg/mL | IC50 [18]: 10.4 µg/mL | IC50 [19]: > 50 µg/mL | IC50 [20]: 0.153 µg/mL | IC50 [21]: > 50 µg/mL | IC50 [22]: 0.04 µg/mL | IC50 [23]: > 50 µg/mL | IC50 [24]: > 50 µg/mL | IC50 [25]: 30 µg/mL | IC50 [26]: > 50 µg/mL | IC50 [27]: 0.338 µg/mL | IC50 [28]: 0.657 µg/mL | IC50 [29]: 19.9 µg/mL | IC50 [30]: > 50 µg/mL | IC50 [31]: 9.35 µg/mL | IC50 [32]: > 50 µg/mL | IC50 [33]: > 50 µg/mL | IC50 [34]: > 50 µg/mL | IC50 [35]: > 50 µg/mL | IC50 [36]: > 50 µg/mL | IC50 [37]: > 50 µg/mL | IC50 [38]: > 50 µg/mL | IC50 [39]: > 50 µg/mL | IC50 [40]: > 50 µg/mL | IC50 [41]: > 50 µg/mL | IC50 [42]: > 50 µg/mL | IC50 [43]: > 50 µg/mL | IC50 [44]: > 50 µg/mL | IC50 [45]: 14.6 µg/mL | IC50 [46]: > 50 µg/mL | IC50 [47]: 0.192 µg/mL | IC50 [48]: > 50 µg/mL | IC50 [49]: 0.014 µg/mL

CAP256-VRC26.18 (antibody)
IC50 [1]: > 50 µg/mL | IC50 [2]: 10.4 µg/mL | IC50 [3]: 0.028 µg/mL | IC50 [4]: > 50 µg/mL | IC50 [5]: > 50 µg/mL | IC50 [6]: > 50 µg/mL | IC50 [7]: > 50 µg/mL | IC50 [8]: 1.9 µg/mL | IC50 [9]: 2.15 µg/mL | IC50 [10]: > 50 µg/mL | IC50 [11]: 0.019 µg/mL | IC50 [12]: > 50 µg/mL | IC50 [13]: > 50 µg/mL | IC50 [14]: 0.008 µg/mL | IC50 [15]: > 50 µg/mL | IC50 [16]: 1.42 µg/mL | IC50 [17]: > 50 µg/mL | IC50 [18]: > 50 µg/mL | IC50 [19]: > 50 µg/mL | IC50 [20]: 5.4 µg/mL | IC50 [21]: > 50 µg/mL | IC50 [22]: 0.03 µg/mL | IC50 [23]: > 50 µg/mL | IC50 [24]: > 50 µg/mL | IC50 [25]: > 50 µg/mL | IC50 [26]: > 50 µg/mL | IC50 [27]: 35 µg/mL | IC50 [28]: 5.31 µg/mL | IC50 [29]: > 50 µg/mL | IC50 [30]: > 50 µg/mL | IC50 [31]: > 50 µg/mL | IC50 [32]: > 50 µg/mL | IC50 [33]: > 50 µg/mL | IC50 [34]: > 50 µg/mL | IC50 [35]: > 50 µg/mL | IC50 [36]: > 50 µg/mL | IC50 [37]: > 50 µg/mL | IC50 [38]: > 50 µg/mL | IC50 [39]: > 50 µg/mL | IC50 [40]: > 50 µg/mL | IC50 [41]: > 50 µg/mL | IC50 [42]: > 50 µg/mL | IC50 [43]: > 50 µg/mL | IC50 [44]: > 50 µg/mL | IC50 [45]: 1.89 µg/mL | IC50 [46]: > 50 µg/mL | IC50 [47]: 0.037 µg/mL | IC50 [48]: > 50 µg/mL | IC50 [49]: 0.01 µg/mL
